Reference: publication PMC6597238, “The GluTR-binding protein is the heme-binding factor for feedback control of glutamyl-tRNA reductase” (eLife, 2019)
Each block holds one binder with its values, some of them ahead of it.

Tests used:
Conditions in all cases: both partners purified
[1] = target: T1, 6xHIS-GluTR1 (glutamyl-tRNA reductase 1) (Arabidopsis, UniProt P42804 62-543); assay: MST; as a3 with addition of 1 µM hemin
T1 construct: glutamyl-tRNA reductase 1 (GluTR1), Arabidopsis, encoded by HEMA1; Czarnecki et al., 2011; Wang et al., 2018; source: E. coli BL21, purified (Ni-NTA)
T1 sequence (looked up): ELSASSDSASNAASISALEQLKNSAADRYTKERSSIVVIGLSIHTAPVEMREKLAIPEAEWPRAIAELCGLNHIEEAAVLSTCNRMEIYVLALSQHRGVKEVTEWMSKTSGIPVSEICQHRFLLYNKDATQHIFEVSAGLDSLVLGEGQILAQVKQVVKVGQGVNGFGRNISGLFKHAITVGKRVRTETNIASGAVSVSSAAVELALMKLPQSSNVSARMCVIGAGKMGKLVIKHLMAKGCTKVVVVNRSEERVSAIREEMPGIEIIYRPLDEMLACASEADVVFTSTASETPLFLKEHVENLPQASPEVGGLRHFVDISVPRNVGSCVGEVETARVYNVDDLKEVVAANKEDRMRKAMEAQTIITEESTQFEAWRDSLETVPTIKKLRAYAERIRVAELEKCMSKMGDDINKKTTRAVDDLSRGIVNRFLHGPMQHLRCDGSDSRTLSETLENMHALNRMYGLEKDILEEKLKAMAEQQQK

[2] = target: T1, 6xHIS-GluTR1 (glutamyl-tRNA reductase 1); assay: MST; 200 nM labeled 6xHIS-GBP-FLUO constant, 6xHIS-GluTR1 titrated from 7.5 µM, PBS, Monolith NT.115; Kd from initial fluorescence quenching; no hemin; n = 2
[3] = target: T2, 6xHIS-GluTR1-FLUO (fluorophore-labeled 6xHIS-GluTR1) (Arabidopsis, UniProt P42804 62-543, fluorophore from the RED-NHS (Amine Reactive) protein labeling kit (second generation)); assay: MST; as a5 with addition of 1 µM hemin
T2 construct: glutamyl-tRNA reductase 1 (GluTR1), Arabidopsis, encoded by HEMA1; same construct as m1, labeled; m1 after amine-reactive labelling; also called labeled HIS-GluTR; source: E. coli BL21, purified (Ni-NTA), labeled with the RED-NHS protein labeling kit
T2 sequence (looked up): T1 sequence (looked up)

[4] = target: T2, 6xHIS-GluTR1-FLUO (fluorophore-labeled …); assay: MST; 200 nM labeled 6xHIS-GluTR1-FLUO constant, 6xHIS-GBP titrated from 7.5 µM, PBS, Monolith NT.115; MST signal 1.5 s after turning on the laser; no hemin; n = 2

- Kd [1]: 931 nM
- Kd [2]: 65 nM
B1: 6xHIS-GBP-FLUO (fluorophore-labeled 6xHIS-GBP) (natural protein, Arabidopsis, UniProt Q9LU39 43-317, looked up)
chain: SVSTTLDTPATASTHKPFPAEVSRSIMELSSVGTLSTLTHDGWPLGVGVRFAVDKDGTPVLCLNRSVSPDKRSALHVQLEQCGLRTPQCTIQGSIGRPGDDTVLKRLSATWREKFGEEVKEDSLYVVAVDRVLQMEDFMEDGIWVASSDYKNASPDPLRDIAEDIVNQINANNMEDIFRFCNVYVDLDFVVSETKMIWMDRLGFDLRVWSPRGVYDVRIPFPMEVTDEKGAKSSFNGMSQLAWEVEKSYCPADFNKVKLLKQVVGSSHSHKGGGQ
modifications: fluorophore from the RED-NHS (Amine Reactive) protein labeling kit (second generation)
notes: same construct as m3, labeled; m3 after amine-reactive labelling; also called labeled HIS-GBP; labeled GBP; source: E. coli BL21, purified (Ni-NTA), labeled with the RED-NHS protein labeling kit

- Kd [3]: 806 nM
- Kd [4]: 113 nM
B2: 6xHIS-GBP (GluTR-binding protein) (natural protein, Arabidopsis, UniProt Q9LU39 43-317, looked up)
chain: B1 chain
notes: Czarnecki et al., 2011; Wang et al., 2018; probably without the transit peptide; source: E. coli BL21, purified (Ni-NTA)
